In patent US20070243198A1 (ERA BIOTECH S A, published 2007):
Blank lines part the entries; values can stand above or below the molecule they belong to.

What was measured:
[1] = target: human EGF receptor on MDA-MB231 breast cancer cells (human) (UniProt P00533); experiment: cell-based or functional assay
[2] = target: T1, hGH binding protein provided by the kit (Active Bioactive Human Growth Hormone ELISA DSL-10-11100, Diagnostic … (UniProt P10912 19-256)); experiment: bioactivity ELISA based on binding to the kit's hGH binding protein (DSL-10-11100)
T1 sequence (looked up): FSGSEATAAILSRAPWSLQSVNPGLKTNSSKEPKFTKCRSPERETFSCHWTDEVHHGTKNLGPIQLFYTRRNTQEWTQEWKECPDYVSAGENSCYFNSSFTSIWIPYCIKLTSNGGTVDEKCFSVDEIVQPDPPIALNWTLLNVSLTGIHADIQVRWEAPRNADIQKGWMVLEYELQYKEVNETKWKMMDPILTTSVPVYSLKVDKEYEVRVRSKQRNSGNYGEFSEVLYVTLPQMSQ

% proliferation with respect to Deprived cells (Mean), radioactive thymidine incorporation, 1.2 ng/mL [1]: 146%
Molecule: RX3-EGF fusion protein

binding result [2]: no binding
B1: RX3 protein without a fusion partner (other)
chain: THTSGGCGCQPPPPVHLPPPVHLPPPVHLPPPVHLPPPVHLPPPVHLPPPVHVPPPVHLPPPPCHYPTQPPRPQPHPQPHPCPCQQPHPSPCQY
notes: also called control RX3 RPBLA preparations; isolated RX3 protein
